Reference: patent US6528625

Experiments:
[1] = target: human CCR5 (untagged; endogenous on human leukocytes, parent of the CCR5/CCR2b chimeras, on U87-CD4-CCR5 cells) (human) (UniProt P51681); assay: inhibition of ^125I-MIP-1α binding to activated T cells (CD3 blasts) by 10 µg/ml mAb
[2] = target: human CCR5 (untagged; endogenous on human leukocytes, parent of the CCR5/CCR2b chimeras, on U87-CD4-CCR5 cells) (human) (UniProt P51681); assay: inhibition of ^125I-RANTES binding to activated T cells (CD3 blasts) by 10 µg/ml mAb
[3] = target: FLAG-tagged human CCR5 expressed on L1.2 murine pre-B lymphoma cells (human) (UniProt P51681); assay: cell-based or functional assay
[4] = target: human CCR5 (untagged; endogenous on human leukocytes, parent of the CCR5/CCR2b chimeras, on U87-CD4-CCR5 cells) (human) (UniProt P51681); assay: cell-based or functional assay

murine monoclonal antibody 2D7
percent inhibition of ^125I-MIP-1α binding [1]: 85%
percent inhibition of ^125I-RANTES binding [2]: 95%
mAb concentration giving complete inhibition of chemotaxis of CCR5 L1.2 cells to RANTES, MIP-1α and MIP-1β [3]: 20 µg/mL
percent inhibition of RANTES and MIP-1α chemotactic responses of T cell lines [4]: 60 to 80%
percent inhibition of chemotaxis of activated, IL-2 maintained T cells to MIP-1α [4]: 60 to 80%
